Measured values as given in publication PMC12583524.

B1: C34 IgG (antibody, V domains shown)
VH: EVQLVESGGGLVQPGRSLRLSCAASGFTFDDYAMHWVRQAPGKGLEWVSGISWNSGSIGYADSVKGRFTISRDNAKNSLYLQMNSLRAEDTALYYCAKDMGYSGNDDYYGMDVWGQGTTVTVSS
VL: DIQLTQSPSSLSASVGDRVTITCRASQRISSYLNWYQQKPGKAPKLLIYGAFSLQSGVPSRFSGSGSGTDFTLTISSLQPEDFATYYCQQSYRTLTRTFGQGTKVEIK
B2: C34 Fab (papain digestion of the mAb) (Fab, V domains shown)
VH: B1 VH
VL: B1 VL
B3: C37 Fab (papain digestion of the mAb) (Fab, V domains shown)
VH: QVQLQESGPGLVKPSETLSLTCTVSGGSIGSSSYYWGWIRQPPGKGLQWIGSFHYSGTTYYNPSLKSRVTISVDTSKNHFSLKLSSVTAADTAVYYCASRQNWNDGYFDYWGQGTLVTVSS
VL: DIQMTQSPATLSLSPGERATLFCRASQSVSSSLAWYQQKPGQAPRLLIYDASNRATGIPARFSGSGSGTDFTLTISSLEPEDFAVYYCQQRGNWPPITFGQGTRLDTK
B4: C37 IgG (antibody, V domains shown)
VH: B3 VH
VL: B3 VL

Biological target: infectious CHIKV virion particle with E3 associated (strain CHIKV-181/25) (Chikungunya virus) (UniProt Q8JUX5)
Sequence (Q8JUX5 whole entry, looked up): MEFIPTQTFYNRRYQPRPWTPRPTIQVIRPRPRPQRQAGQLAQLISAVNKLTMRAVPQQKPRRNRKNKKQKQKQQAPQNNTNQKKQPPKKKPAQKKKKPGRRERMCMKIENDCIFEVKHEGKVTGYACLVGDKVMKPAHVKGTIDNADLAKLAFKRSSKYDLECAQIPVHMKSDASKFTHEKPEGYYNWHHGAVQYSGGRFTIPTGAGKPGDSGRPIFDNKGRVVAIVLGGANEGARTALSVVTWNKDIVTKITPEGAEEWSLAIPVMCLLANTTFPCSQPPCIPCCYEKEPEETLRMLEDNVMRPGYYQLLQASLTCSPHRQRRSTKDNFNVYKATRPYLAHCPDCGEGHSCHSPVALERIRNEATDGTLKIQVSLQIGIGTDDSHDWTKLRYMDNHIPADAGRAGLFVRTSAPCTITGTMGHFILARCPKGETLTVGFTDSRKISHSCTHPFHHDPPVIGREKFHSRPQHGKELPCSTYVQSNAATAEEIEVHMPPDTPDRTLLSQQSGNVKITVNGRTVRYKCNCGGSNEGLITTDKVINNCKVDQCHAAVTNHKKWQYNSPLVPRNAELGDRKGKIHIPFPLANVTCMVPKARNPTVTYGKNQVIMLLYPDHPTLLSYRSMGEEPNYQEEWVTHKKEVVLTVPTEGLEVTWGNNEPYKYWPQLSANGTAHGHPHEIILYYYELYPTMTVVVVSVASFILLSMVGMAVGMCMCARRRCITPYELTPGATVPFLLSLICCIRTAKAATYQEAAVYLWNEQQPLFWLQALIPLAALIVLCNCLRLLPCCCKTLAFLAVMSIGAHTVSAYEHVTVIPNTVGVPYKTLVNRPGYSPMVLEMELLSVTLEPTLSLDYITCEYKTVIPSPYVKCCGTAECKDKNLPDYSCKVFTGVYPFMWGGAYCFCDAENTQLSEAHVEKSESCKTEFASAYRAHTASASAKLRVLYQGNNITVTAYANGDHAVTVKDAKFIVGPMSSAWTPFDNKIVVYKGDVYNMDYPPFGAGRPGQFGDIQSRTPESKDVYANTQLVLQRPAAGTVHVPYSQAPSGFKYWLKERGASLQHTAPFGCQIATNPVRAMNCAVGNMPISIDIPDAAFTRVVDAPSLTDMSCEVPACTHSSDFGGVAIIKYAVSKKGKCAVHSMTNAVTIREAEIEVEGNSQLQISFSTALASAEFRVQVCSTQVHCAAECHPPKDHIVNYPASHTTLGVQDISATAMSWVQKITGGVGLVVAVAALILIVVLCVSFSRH

Compared with B1, B2 is 2-fold higher in PRNT50, post-attachment neutralisation assay on Vero cells: 48.7 ng/mL for the first, 97 ng/mL for the second.

First: B3
Second: B4
The PRNT50, post-attachment neutralisation assay on Vero cells of the first is 4.4-fold higher: 727 ng/mL for the first, 164 ng/mL for the second.
